T1: human APJ (apelin receptor) (human, UniProt P35414 1-380)
T1 construct: Expressed on the membrane of stably transfected CHO-DHFR- cells; also called hAPJ; APJ receptor
T1 sequence: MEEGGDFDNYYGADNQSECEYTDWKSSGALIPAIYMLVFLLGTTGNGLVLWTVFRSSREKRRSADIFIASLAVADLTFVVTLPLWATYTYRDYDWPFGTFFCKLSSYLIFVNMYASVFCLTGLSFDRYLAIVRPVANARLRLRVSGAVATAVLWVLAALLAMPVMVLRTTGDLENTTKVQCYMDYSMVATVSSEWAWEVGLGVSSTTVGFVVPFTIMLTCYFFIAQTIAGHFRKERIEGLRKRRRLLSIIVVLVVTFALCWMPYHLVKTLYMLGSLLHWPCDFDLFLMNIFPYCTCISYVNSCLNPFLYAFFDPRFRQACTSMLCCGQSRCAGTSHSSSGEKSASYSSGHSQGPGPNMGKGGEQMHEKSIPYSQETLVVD

B1: hAPJ antibody L1H1 (antibody, V domains shown)
VH: EVQLIETGGGLVQPTGSLQLSCAASGFPFNINAMNWVRQAPGKGLEWVARIRSKSNNYATYYADSVKDRFTISRDDSQSILYLQMNNLKTEDSAMYFCVRGPYLYAMDYWGQGTSVTVSS
VL: DIQMNQSPSSLSASLGDTITITCHASQNIHVWLSWYQQKPGNIPKLLIYKASNLHTGVPSRFSGSGSGTGFTLTISSLQPEDIATYYCQQGHSYPLTFGGGTKLEIKR
notes: also called mouse ascites antibody L1H1
B2: hAPJ antibody L4H4 (antibody, V domains shown)
VH: EIKLVESGGGLVKPRGSLKLSCAASGFTFSSYAMSWVRQTPEKRLEWVASISSGGSIYLPDSLKGRFTISRDNAWNILYLQMNSLKSEDTAMYYCTRGRGNSSAWFAYWGQGTLVTVSA
VL: DVLMTQTPLSLPVSLGDQASISCRSDQSLVHRTGNTHLDWYLQKPGQSPKLLIYKVSNRFSGVPDRFSGSGSGTDFTLKISRVEAEDLGVYYCFQASHIPFTFGSGTKLEIKR
notes: also called mouse ascites antibody L4H4
B3: fusion protein of hAPJ antibody L5H5 and Linker2-Elabela-11 (protein, not shown: a dimerising Fc or GST; large carriers)
heavy (part 1 of 2): EIQLVESGGGLVKPGGSLRLSCAASGFTFSSYAMSWVRQAPGKGLEWVASISSGGSIYLPDSLKGRFTISRDNAKNSLYLQMNSLRAEDTAVYYCTRGRGNSSAWFAYWGQGTLVTVSS
heavy (part 2 of 2): GGGGSGGGGSCMPLHSRVPFP
light: DVLMTQSPLSLPVTLGQPASISCRSDQSLVHRTGNTHLDWYQQRPGQSPRLLIYKVSNRFSGVPDRFSGSGSGTDFTLKISRVEAEDVGVYYCFQASHIPFTFGQGTKVEIKR
B4: fusion protein of hAPJ antibody L5H5 and Linker2-EA3 (protein, not shown: a dimerising Fc or GST; large carriers)
heavy (part 1 of 2): EIQLVESGGGLVKPGGSLRLSCAASGFTFSSYAMSWVRQAPGKGLEWVASISSGGSIYLPDSLKGRFTISRDNAKNSLYLQMNSLRAEDTAVYYCTRGRGNSSAWFAYWGQGTLVTVSS
heavy (part 2 of 2): GGGGSGGGGSQRRCMPLHSRVPMPF
light: DVLMTQSPLSLPVTLGQPASISCRSDQSLVHRTGNTHLDWYQQRPGQSPRLLIYKVSNRFSGVPDRFSGSGSGTDFTLKISRVEAEDVGVYYCFQASHIPFTFGQGTKVEIKR
B5: fusion protein of hAPJ antibody L5H5 and Linker2-EA5 (protein, not shown: a dimerising Fc or GST; large carriers)
heavy (part 1 of 2): EIQLVESGGGLVKPGGSLRLSCAASGFTFSSYAMSWVRQAPGKGLEWVASISSGGSIYLPDSLKGRFTISRDNAKNSLYLQMNSLRAEDTAVYYCTRGRGNSSAWFAYWGQGTLVTVSS
heavy (part 2 of 2): GGGGSGGGGSQRRCMPLHSRVPAP
light: DVLMTQSPLSLPVTLGQPASISCRSDQSLVHRTGNTHLDWYQQRPGQSPRLLIYKVSNRFSGVPDRFSGSGSGTDFTLKISRVEAEDVGVYYCFQASHIPFTFGQGTKVEIKR
B6: fusion protein of hAPJ antibody L5H5 and Linker2-EA2 (protein, not shown: a dimerising Fc or GST; large carriers)
heavy (part 1 of 2): EIQLVESGGGLVKPGGSLRLSCAASGFTFSSYAMSWVRQAPGKGLEWVASISSGGSIYLPDSLKGRFTISRDNAKNSLYLQMNSLRAEDTAVYYCTRGRGNSSAWFAYWGQGTLVTVSS
heavy (part 2 of 2): GGGGSGGGGSQRPRLSHKGPFP
light: DVLMTQSPLSLPVTLGQPASISCRSDQSLVHRTGNTHLDWYQQRPGQSPRLLIYKVSNRFSGVPDRFSGSGSGTDFTLKISRVEAEDVGVYYCFQASHIPFTFGQGTKVEIKR
B7: fusion protein of hAPJ antibody L5H5 and Linker2-EA1 (protein, not shown: a dimerising Fc or GST; large carriers)
heavy (part 1 of 2): EIQLVESGGGLVKPGGSLRLSCAASGFTFSSYAMSWVRQAPGKGLEWVASISSGGSIYLPDSLKGRFTISRDNAKNSLYLQMNSLRAEDTAVYYCTRGRGNSSAWFAYWGQGTLVTVSS
heavy (part 2 of 2): GGGGSGGGGSQRPRLHSRVPFP
light: DVLMTQSPLSLPVTLGQPASISCRSDQSLVHRTGNTHLDWYQQRPGQSPRLLIYKVSNRFSGVPDRFSGSGSGTDFTLKISRVEAEDVGVYYCFQASHIPFTFGQGTKVEIKR
B8: fusion protein of hAPJ antibody L5H5 and Linker2-EA4 (protein, not shown: a dimerising Fc or GST; large carriers)
heavy (part 1 of 2): EIQLVESGGGLVKPGGSLRLSCAASGFTFSSYAMSWVRQAPGKGLEWVASISSGGSIYLPDSLKGRFTISRDNAKNSLYLQMNSLRAEDTAVYYCTRGRGNSSAWFAYWGQGTLVTVSS
heavy (part 2 of 2): GGGGSGGGGSQRRCLSHKGPMPF
light: DVLMTQSPLSLPVTLGQPASISCRSDQSLVHRTGNTHLDWYQQRPGQSPRLLIYKVSNRFSGVPDRFSGSGSGTDFTLKISRVEAEDVGVYYCFQASHIPFTFGQGTKVEIKR

The first assay deals with T1, human APJ (apelin receptor). Put plainly: FACS on CHO-DHFR-hAPJ cells, antibody at 500 nM and 4 nM, blank CHO-DHFR- cells as negative control. The protocol: PBS containing EDTA was used to detach and collect 10⁵ CHO-DHFR-hAPJ cells into 1.5 mL EP tubes. The supernatant was removed after centrifugation. The negative control sample was resuspended with a FACS loading buffer (PBS, 2% FBS). For the positive control, 200 μL antibody supernatant with certain concentration was added to resuspend cells and then incubated at room temperature; the cells were then centrifuged at 1500 rpm to remove the supernatant, washed with a FACS loading buffer and centrifuged again. The cells were resuspended followed by addition (200 μL/well) of a FITC labeled goat anti-mouse fluorescent secondary antibody at 1:50 dilution and incubated at room temperature for 30 min in the dark. Supernatant was removed after centrifugation, cells were washed with FACS loading buffer, centrifuged again and resuspended with the loading buffer for analysis.
On to B1, for which the binding result is on record as “binds”.
On the same count and under the same terms, the entry for B2 is “binds”.

Another assay has the same target. The assay can be described thus: cell-based or functional assay.
In turn, B3 showed an EC50, reporter gene assay, activation of Elabela/APJ signaling pathway of 3.61 nM.
Same read-out and setting: the figure for B4 is 20.3 nM.
The same measure, in the same setting: next, B5: 2.55 nM; B6: 2.16 nM; B7: 4.95 nM.
The molecule B8 yielded an EC50, reporter gene assay, activation of Elabela/APJ signaling pathway of 5.4 nM.

(Values after US20210163614A1 (GMAX BIOPHARM, published 2021).)
